The values below come from patent US20150174289A1 (OMRIX BIOPHARMACEUTICALS, published 2015).

The experiment deals with T1, fibrin monomers (UniProt P02671 36-629; P02675 45-491; P02679 27-437).
T1 sequence (looked up) 1: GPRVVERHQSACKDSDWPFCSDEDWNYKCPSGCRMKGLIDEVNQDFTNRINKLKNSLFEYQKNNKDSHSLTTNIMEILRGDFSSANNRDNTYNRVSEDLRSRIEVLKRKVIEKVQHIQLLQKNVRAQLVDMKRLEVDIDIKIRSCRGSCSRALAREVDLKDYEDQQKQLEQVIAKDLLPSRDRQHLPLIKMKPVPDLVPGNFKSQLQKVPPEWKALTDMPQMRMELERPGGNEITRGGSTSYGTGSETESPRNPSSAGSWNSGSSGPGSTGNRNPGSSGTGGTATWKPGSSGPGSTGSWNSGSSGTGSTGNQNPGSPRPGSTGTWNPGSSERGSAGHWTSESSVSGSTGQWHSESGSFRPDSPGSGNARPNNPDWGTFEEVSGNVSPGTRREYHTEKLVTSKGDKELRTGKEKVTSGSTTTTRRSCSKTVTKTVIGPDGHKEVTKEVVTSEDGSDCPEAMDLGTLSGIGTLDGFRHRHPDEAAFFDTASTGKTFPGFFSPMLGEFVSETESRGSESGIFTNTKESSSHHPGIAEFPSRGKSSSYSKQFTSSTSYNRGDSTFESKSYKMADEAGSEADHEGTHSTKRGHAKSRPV
T1 sequence (looked up) 2: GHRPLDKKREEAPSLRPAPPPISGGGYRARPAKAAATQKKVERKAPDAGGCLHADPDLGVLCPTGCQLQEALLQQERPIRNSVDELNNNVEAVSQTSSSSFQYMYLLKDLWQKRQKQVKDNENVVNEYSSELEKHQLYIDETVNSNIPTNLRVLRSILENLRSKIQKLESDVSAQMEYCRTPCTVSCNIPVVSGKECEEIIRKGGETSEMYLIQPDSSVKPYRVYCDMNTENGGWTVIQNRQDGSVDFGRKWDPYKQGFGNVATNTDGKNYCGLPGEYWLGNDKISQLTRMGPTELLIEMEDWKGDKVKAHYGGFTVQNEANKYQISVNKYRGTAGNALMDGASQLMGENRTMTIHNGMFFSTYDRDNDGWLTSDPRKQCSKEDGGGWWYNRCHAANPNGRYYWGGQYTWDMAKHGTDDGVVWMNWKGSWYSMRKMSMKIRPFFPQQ
T1 sequence (looked up) 3: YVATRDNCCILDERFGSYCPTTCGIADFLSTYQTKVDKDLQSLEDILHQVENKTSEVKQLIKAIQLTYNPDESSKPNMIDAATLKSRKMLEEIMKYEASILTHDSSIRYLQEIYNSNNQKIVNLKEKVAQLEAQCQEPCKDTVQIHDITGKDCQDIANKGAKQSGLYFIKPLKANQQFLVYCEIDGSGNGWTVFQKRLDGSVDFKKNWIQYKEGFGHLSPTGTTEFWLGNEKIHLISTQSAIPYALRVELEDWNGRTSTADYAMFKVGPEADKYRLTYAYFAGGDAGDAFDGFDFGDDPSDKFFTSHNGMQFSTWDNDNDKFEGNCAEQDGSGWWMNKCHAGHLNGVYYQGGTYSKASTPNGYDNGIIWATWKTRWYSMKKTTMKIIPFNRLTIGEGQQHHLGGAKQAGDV
Description: cell-based or functional assay.

B1: GPRP peptide (Gly-Pro-Arg-Pro) (peptide)
peptide: GPRP
For B1, the “Time to clot (1% fibrin monomers, 1 mM GPRP, 34 fold GPRP:fibrin)” value is less than 5 min; the “Time to clot (1% fibrin monomers, 5 mM GPRP, 170 fold GPRP:fibrin)” value worked out at 4 h; the “Time to clot (1.5% fibrin monomers, 20 mM GPRP, 453 fold GPRP:fibrin)” value was more than 2 weeks; the “Time to clot (3% fibrin monomers, 0.1 mM GPRP, 1.1 fold GPRP:fibrin)” value is 5 s. The “Time to clot (3% fibrin monomers, 0.2 mM GPRP, 2.3 fold GPRP:fibrin)” value was determined as 7 s; the “Time to clot (3% fibrin monomers, 0.5 mM GPRP, 5.7 fold GPRP:fibrin)” value amounted to 11 s; the “Time to clot (3% fibrin monomers, 1 mM GPRP, 11.3 fold GPRP:fibrin)” value was 13 s; the “Time to clot (3% fibrin monomers, 1.5 mM GPRP, 17 fold GPRP:fibrin)” value came to 22 s. Moreover, the “Time to clot (3% fibrin monomers, 2 mM GPRP, 22.7 fold GPRP:fibrin)” value is 28 s; the “Time to clot (3% fibrin monomers, 3 mM GPRP, 34 fold GPRP:fibrin)” value came to 2.5 min; the “Time to clot (3% fibrin monomers, 4 mM GPRP, 45 fold GPRP:fibrin)” value came out at 8 min; the “Time to clot (3% fibrin monomers, 5 mM GPRP, 56.7 fold GPRP:fibrin)” value was 15 min. The “Time to clot (3.5% fibrin monomers, 40 mM GPRP, 389 fold GPRP:fibrin)” value is more than 2 weeks.
